For orientation: Kd means a measure of binding affinity in units of concentration. A high value points to a looser complex.

The labels stand for the following.
T1: BoNT/F1 (proteolytic BoNT/F) (Clostridium botulinum, UniProt A7GBG3 1-1278)
T1 sequence: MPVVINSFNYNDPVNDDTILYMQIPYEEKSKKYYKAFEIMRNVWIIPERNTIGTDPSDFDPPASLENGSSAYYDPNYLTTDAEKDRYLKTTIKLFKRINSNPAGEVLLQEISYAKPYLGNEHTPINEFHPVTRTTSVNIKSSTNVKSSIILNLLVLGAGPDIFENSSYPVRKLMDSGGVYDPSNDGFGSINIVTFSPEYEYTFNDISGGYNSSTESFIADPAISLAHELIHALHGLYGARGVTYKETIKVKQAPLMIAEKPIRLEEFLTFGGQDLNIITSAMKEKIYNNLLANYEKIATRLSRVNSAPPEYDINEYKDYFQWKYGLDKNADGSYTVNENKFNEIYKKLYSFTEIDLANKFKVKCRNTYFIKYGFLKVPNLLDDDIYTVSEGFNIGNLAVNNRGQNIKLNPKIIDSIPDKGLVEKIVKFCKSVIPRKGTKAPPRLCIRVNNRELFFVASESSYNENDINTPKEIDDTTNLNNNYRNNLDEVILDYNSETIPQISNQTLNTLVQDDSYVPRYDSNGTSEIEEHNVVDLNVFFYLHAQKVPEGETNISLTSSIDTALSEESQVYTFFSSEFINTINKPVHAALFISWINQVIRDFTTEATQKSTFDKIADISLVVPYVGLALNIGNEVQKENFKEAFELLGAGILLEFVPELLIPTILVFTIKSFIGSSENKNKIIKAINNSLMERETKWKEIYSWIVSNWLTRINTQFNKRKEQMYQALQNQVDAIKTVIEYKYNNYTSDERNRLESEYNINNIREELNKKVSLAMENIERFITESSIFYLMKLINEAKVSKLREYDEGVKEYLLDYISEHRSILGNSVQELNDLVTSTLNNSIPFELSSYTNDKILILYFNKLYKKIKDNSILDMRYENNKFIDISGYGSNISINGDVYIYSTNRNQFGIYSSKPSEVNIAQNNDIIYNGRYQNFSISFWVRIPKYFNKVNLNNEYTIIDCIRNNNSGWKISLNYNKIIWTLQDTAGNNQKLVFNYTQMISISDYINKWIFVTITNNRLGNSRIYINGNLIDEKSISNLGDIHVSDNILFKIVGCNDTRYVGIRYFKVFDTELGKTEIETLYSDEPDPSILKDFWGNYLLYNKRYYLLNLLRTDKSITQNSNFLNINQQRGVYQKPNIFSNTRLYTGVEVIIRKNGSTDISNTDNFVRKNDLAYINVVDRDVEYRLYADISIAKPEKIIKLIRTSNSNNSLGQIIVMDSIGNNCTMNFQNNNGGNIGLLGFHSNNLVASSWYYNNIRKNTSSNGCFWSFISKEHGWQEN

T2: BoNT/C1 holotoxin (Clostridium botulinum, UniProt P18640 2-1291)
T2 sequence: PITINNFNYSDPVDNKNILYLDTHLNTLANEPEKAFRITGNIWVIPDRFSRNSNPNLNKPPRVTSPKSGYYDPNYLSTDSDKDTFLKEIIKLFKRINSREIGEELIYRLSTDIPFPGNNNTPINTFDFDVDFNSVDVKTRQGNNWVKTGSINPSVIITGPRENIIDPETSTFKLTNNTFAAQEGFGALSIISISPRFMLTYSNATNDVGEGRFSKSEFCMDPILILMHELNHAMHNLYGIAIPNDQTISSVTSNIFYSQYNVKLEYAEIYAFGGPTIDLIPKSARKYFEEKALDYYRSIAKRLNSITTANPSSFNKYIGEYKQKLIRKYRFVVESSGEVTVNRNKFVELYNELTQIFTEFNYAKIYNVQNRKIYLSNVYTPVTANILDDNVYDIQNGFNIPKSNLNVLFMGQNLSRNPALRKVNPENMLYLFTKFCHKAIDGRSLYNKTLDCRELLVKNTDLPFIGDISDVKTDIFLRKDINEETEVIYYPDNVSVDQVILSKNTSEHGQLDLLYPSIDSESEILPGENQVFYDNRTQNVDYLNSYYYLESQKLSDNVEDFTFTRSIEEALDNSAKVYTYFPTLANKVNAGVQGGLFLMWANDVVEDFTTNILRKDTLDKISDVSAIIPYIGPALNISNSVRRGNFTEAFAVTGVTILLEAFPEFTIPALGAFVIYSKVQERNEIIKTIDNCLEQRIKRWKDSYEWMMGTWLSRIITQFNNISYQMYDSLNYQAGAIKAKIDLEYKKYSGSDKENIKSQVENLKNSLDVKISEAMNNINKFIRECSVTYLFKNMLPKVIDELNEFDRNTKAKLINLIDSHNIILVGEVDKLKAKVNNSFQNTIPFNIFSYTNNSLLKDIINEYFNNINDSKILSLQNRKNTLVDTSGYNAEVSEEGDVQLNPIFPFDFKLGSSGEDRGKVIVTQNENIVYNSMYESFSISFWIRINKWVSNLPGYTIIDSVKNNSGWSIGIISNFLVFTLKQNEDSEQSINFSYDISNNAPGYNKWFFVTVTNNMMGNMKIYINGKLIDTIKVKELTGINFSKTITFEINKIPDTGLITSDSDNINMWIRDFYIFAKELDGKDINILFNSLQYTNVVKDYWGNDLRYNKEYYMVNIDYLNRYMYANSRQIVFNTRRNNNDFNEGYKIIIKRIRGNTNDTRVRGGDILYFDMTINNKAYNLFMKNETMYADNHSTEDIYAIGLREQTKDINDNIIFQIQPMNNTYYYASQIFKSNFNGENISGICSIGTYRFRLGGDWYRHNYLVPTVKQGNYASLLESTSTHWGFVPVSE

T3: BoNT/D (Clostridium botulinum, UniProt P19321 2-1276)
T3 sequence: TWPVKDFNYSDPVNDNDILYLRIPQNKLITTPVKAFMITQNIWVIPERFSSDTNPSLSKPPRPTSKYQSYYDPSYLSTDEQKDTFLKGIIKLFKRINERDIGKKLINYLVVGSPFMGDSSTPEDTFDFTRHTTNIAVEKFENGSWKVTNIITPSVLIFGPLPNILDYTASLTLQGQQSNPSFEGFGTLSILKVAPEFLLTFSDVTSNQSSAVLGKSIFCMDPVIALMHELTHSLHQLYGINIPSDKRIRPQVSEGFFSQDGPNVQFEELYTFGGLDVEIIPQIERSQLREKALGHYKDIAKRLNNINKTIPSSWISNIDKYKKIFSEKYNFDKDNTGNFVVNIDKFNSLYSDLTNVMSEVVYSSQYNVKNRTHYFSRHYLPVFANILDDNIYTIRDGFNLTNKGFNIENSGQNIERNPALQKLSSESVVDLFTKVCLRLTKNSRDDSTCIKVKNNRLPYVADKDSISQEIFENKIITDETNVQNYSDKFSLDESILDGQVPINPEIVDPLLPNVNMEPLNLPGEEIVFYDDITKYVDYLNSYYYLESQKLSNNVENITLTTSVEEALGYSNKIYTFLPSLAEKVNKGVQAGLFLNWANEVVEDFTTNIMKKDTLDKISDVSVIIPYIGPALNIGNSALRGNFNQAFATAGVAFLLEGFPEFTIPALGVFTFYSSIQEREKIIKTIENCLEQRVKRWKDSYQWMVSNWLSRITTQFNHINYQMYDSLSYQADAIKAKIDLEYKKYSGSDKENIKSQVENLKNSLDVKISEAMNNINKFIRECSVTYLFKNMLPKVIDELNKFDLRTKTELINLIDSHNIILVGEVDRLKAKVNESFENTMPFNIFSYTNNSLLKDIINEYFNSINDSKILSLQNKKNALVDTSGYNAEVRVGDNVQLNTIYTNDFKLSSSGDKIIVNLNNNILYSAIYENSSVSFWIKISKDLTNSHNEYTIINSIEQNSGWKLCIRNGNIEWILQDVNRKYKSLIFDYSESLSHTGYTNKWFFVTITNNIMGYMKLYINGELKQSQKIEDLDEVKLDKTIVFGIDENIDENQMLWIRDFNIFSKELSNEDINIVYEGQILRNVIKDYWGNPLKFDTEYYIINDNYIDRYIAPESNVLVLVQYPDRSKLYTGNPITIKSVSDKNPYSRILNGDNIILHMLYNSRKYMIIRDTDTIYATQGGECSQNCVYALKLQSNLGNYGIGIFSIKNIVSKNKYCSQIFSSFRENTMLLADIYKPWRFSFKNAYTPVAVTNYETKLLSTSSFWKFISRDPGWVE

B1: 6F8 IgG (antibody, V domains shown)
VH: QVQLKQSGAELVKSGASVKLSCTASGFNIKDFYMHWVKQRTEQGLEWIGRIDPEDGETKYAPKFQGKATITADTSSNTAYLQLSSLTSEDTAVYYCVRDRDYDWGQGTTLTVSS
VL: not shown
notes: IgG from scFv V genes
B2: 6F9 IgG (antibody, V domains shown)
VH: QVQLQQPGAELVKPGASVKLSCKASGNSFASSWMHWVKQRPGQGLEWIGMIHPYSGSTNFNEKFKSKATLSVDKSSSTAYMQLSSLTSEDSAVYYCAMNWDWYFDVWGTGTTVTVSA
VL: DVVMTQSPKFMSTSVGDRVSITCKASQDVGTAVAWYQQKPGQSPKLLIYWASTRHTGVPDRFTGSGSGTDFTLTISDVLSEDLADYFCQQYGGYPTFGGGTKLEIK
notes: IgG from scFv V genes
B3: 6F10 IgG (antibody, V domains shown)
VH: EVQLQESGGDLVKPGGSLKLSCAASGFTFSYYGMSWVRQTPDKRLEWVATISSGGTYTYYPDSVKGRFTISRDNAKNTLYLQMSSLSSEDTAMYYCARRRSYDSVYWYFDVWGAGTSVTVSS
VL: DIVLTQSPAITAASLGQKVTITCSASSSGSYIHWYQQKSGTSPKLLIYRTSNLASGVPSRFSGSGSGTFYSLTISSVEAEDAADYFCHQWSSYPTFGGGTKLEIK
notes: IgG from scFv V genes
B4: 6F6 IgG (antibody, V domains shown)
VH: EVQLLESGGGLVKPGGSRKLSCEASGFTFSDYGMHWVRQAPEKGLEWVGYISSGSRIIYYADTVKGRITISRDNAKNTLFLQMTSLRSEDTAMYYCVRGTWVFDYWGQGTTLTVSS
VL: DIVMTQSPASLAVSLGQRATISCRASESVDNYGISFMNWFQQKPGQPPKLLIYAASNLESGIPARFSGSGSGTDFTLTINPVEADDVATYYCQQSNEDPYTFGGGTKLEIK
notes: IgG from scFv V genes
B5: 6F7 IgG (antibody, V domains shown)
VH: QVQLQESGPGLVKPSQTVSLTCTVAGYSITNGNHWWNWIRQVSGSKLEWIGYITSSGSTDSNPSLKSRISITRDTSKNQLFLQLNSVTTEDIATYYCARSSNYFFHVLDYWGQGTSVTVSS
VL: DIVLTQTPAIMSASPGEKVTMTCSASSSVSYMHWFQQKPGTSPKLWIYSTSNLASGVPARFSGSGSGTSYSLTISRMEAEDAATYYCQQRSSYPPTFGGGTRLEIK
notes: IgG from scFv V genes
B6: 4C5 scFv (scFv, V domains shown)
VH: QVQLVQSGADVKKPGASVRVSCKASGYTISTYAMSWVRQAPGQGLEWMGWISGYNGNTNYAQEFQGRVTMTRDTSTNTAYMELRSLRSDDTAFYYCARVKLTTMVRGGPFDYWGQGTLVTVSS
VL: EIVLTQSPSSLSATVGDRVTITCRASQGIRNDLVWYQQKPGKAPKRLTYAASSLLSGVPSRFSGSGSGTDFTLTISSLQPEDFATYYCQQYNSYPPTFGGGTKLEIK
notes: human
B7: 4C3 scFv (scFv, V domains shown)
VH: EVQLVQSGAEVKKPGSSVKVSCKASGNSLNNYAITWVRQAPGQGLEWMGGINPLFGTANYAQKFQDRVTMTADESTNIAYLDLSSLTTADTAVYFCAVGAFTNYPFWGQGTTVTVSS
VL: SGLTQDPAVSEALGQTVRITCQGDSLRSYYASWYQQKPGQAPLLVIYAGNNRPSGIPDRFSGSSSGNTASLTITGARAEDEADYYCNSRDSSGNYLFGAGTKLTVL
notes: human
B8: 4C1 scFv (scFv, V domains shown)
VH: QVQLQESGPGLVKPSQTLSLTCAVSGGSINSGDYYWTWIRQHPGKGLEWIGNIYYTGRTYYNPSLQSRLTMSVDTSRTHFSLKLSAVTAADTAVYYCARGQDTSMVTRNFYYGLDVWGQGTTVTVSS
VL: DIVMTQSPSFVSASVGDRVTITCRASQGISSYLAWYQQKPGKAPKLLIYAASTLQSGVPSRFSGSGSGTDFTLTISSLQPEDIATYYCQELSSYPLTFGGGTKLEIK
notes: human
B9: 87C78 scFv (scFv, V domains shown)
VH: QVQLQESGGGVVQPGKSLRLSCVTSTFTLGTYAMHWVRQAPGKGLQWVAVISYDGRYADYADSVKGRFNISRDNSKNTLYLQMHSLTTEDTALYYCAKAIKAFRPVPPSFHMDVWGIGTTVTVSS
VL: DIVMTQSPSSLSASVGDRVTITCRASQGISSYLAWYQQKPGKAPQLLIYKASILKSGVPSRFSGSGSGTEFTLTISSLQPEDFATYFCQQTFDTPLTFGQGTKVEIK
notes: human

The first assay deals with T1, BoNT/F1 (proteolytic BoNT/F). Kind of assay: IgG.
B1 showed an equilibrium dissociation constant (Kd) of 0.22 nM.
On to B2, for which the dissociation constant (Kd) came to 0.26 nM.
In the case of B3, binding was characterised by a dissociation constant (Kd) of 0.07 nM.
The molecule B4 came in with a dissociation constant Kd of 0.048 nM.
Same read-out and setting: under B5 stands 0.57 nM.

The next assay concerns the target T2, BoNT/C1 holotoxin. Kind of assay: yeast scFv FACS.
B6 had a Kd of 0.143 nM.
B7 returned an equilibrium dissociation constant (Kd) of 4.7 nM.
Turning to B8, the equilibrium dissociation constant (Kd) worked out at 2.7 nM.
The molecule B9 yielded an equilibrium dissociation constant (Kd) of 1 nM.

For another assay, the target named is T3, BoNT/D. Kind of assay: yeast scFv FACS.
In the case of B6, the binding result is on record as “no binding (tested: ~1 µM)”.
For B7, the binding result was “no binding (tested: ~1 µM)”.
In the case of B8, the binding result was “no binding (tested: ~1 µM)”.
The same measure, in the same setting: as for B9, the entry is “no binding (tested: ~1 µM)”.

(Values after patent publication US20220089784A1 (University of California, published 2022).)
